Data from publication doi:10.1101/2024.02.24.581832.

Biological target: N-terminal domain of MtbClpC1 (residues 1-145) (Mycobacterium tuberculosis) (UniProt P9WPC9)
Experiment: differential scanning fluorimetry

Sequence of UniProt P9WPC9 (P9WPC9 1-145): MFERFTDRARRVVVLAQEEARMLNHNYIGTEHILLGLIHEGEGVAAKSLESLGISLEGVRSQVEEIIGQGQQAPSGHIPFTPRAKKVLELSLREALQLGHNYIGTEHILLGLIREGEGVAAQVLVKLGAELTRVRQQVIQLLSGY

| Substance | ΔTm [°C] |
| --- | --- |
| ilamycin F (peptide) | 1 |
| ilamycin E (peptide) | 3 |
